Holding throughout (experiment): SEC; 200 uL of purified protein on a Superdex 200 10/30 column in TBS with 5 mM EDTA, pH 7.4, 0.3 mL/min; elution at 280 nm compared with molecular weight standards (12.4 to 443 kDa) and with refolded reference preparations
Assay [1] has as its target recombinant fragment of human SP-A (rfhSP-A) expressed and isolated as a soluble protein using NT* (human).
The target in assay [2] is recombinant fragment of human SP-D (rfhSP-D) expressed and isolated as a soluble protein using NT* (human).
Assay [3] has as its target rfhSP-A refolded using the previous refolding protocol using NTwt (human).
The target in assay [4] is rfhSP-D expressed and purified without an expression tag using the standard rfhSP-D purification protocol (human).

For orientation: stoichiometry N means the number of molecules, sites or subunits per partner or assembly.

Take “recombinant fragment of human SP-A (rfhSP-A) expressed and isolated as a soluble protein using NT* (domain or fragment)”: in assay [1], the percent of the protein eluting at the volume of the trimer was determined as 24% and the stoichiometry N is 3. Regarding “recombinant fragment of human SP-D (rfhSP-D) expressed and isolated as a soluble protein using NT* (domain or fragment)”, in assay [2], the percent of the protein eluting at the volume of the trimer turned out to be 88.5% and the stoichiometry N was 3.

The substance “rfhSP-A refolded using the previous refolding protocol using NTwt (domain or fragment)” registered a stoichiometry N in assay [3] of 3. Regarding “rfhSP-D expressed and purified without an expression tag using the standard rfhSP-D purification protocol (domain or fragment)”, the stoichiometry N in assay [4] came to 3.

For the origin of these results see PMC7422833.
